What is called stoichiometry N is a count of units in the complex or per binding partner.

For this experiment, the target named is 9-CM, simplified chorismate mutase composed of only nine different amino acids. The experiment is described as follows: SEC; size-exclusion column after Ni-NTA affinity purification; dimer peak (major peak around 170 mL) isolated for each sample; small fraction of aggregates in the mutant proteins.

Substance “9-CM, simplified chorismate mutase composed of only nine different amino acids (enzyme)” showed a stoichiometry N of 2.

Source of the values: PMC3536711, “Directed Evolution of a Model Primordial Enzyme Provides Insights into the Development of the Genetic Code” (PLoS Genetics, 2013).
